Laboratory results: patent US20140255383A1 (SYNAGEVA BIOPHARMA, published 2014)

Molecular target: Mannose 6-phosphate receptor (M6P receptor) on human MPS IIIB fibroblasts (human)
Assay: cell-based or functional assay

B1: recombinant human N-acetyl-alpha-D-glucosaminidase (rhNaGlu) produced from a transgenic avian (Gallus) (enzyme)
chain: DEAREAAAVRALVARLLGPGPAADFSVSVERALAAKPGLDTYSLGGGGAARVRVRGSTGVAAAAGLHRYLRDFCGCHVAWSGSQLRLPRPLPAVPGELTEATPNRYRYYQNVCTQSYSFVWWDWARWEREIDWMALNGINLALAWSGQEAIWQRVYLALGLTQAEINEFFTGPAFLAWGRMGNLHTWDGPLPPSWHIKQLYLQHRVLDQMRSFGMTPVLPAFAGHVPEAVTRVFPQVNVTKMGSWGHFNCSYSCSFLLAPEDPIFPIIGSLFLRELIKEFGTDHIYGADTFNEMQPPSSEPSYLAAATTAVYEAMTAVDTEAVWLLQGWLFQHQPQFWGPAQIRAVLGAVPRGRLLVLDLFAESQPVYTRTASFQGQPFIWCMLHNFGGNHGLFGALEAVNGGPEAARLFPNSTMVGTGMAPEGISQNEVVYSLMAELGWRKDPVPDLAAWVTSFAARRYGVSHPDAGAAWRLLLRSVYNCSGEACRGHNRSPLVRRPSLQMNTSIWYNRSDVFEAWRLLLTSAPSLATSPAFRYDLLDLTRQAVQELVSLYYEEARSAYLSKELASLLRAGGVLAYELLPALDEVLASDSRFLLGSWLEQARAAAVSEAEADFYEQNSRYQLTLWGPEGNILDYANKQLAGLVANYYTPRWRLFLEALVDSVAQGIPFQQHQFDKNVFQLEQAFVLSKQRYPSQPRGDTVDLAKKIFLKYYPRWVAGSW
modifications: glycosylated; glycans carry mannose-6-phosphate (3.2 moles of M6P per mole of protein), sites not stated
cellular uptake: NaGlu activity in MPS IIIB fibroblasts treated with 0.3 µg/mL rhNaGlu for 24 hours, against wild-type fibroblasts: ~50 % of wild-type activity | cellular uptake: NaGlu activity in MPS IIIB fibroblasts treated with 1 µg/mL rhNaGlu for 24 hours, against wild-type fibroblasts: ~4 fold of wild-type activity | cellular uptake: NaGlu activity in MPS IIIB fibroblasts treated with 30 µg/mL rhNaGlu for 24 hours, against wild-type fibroblasts: ≥ 40 fold of wild-type activity
